Laboratory results reported in the RNAGym collection of RNA variant scans (doi:10.7554/elife.90254).

B1: OR4K15 (parent)
chain: GUUAACGGUCAUAGGCCAUGGAAACUAGGAGCACCAUUUCGCUGCCAGUGAAGAAAUGAACAAAGAAAAUCUGGGCCAGGCAGGCAUCAAAAGAAAUAGUCUUGCGCUCAACCAGAAAGUCUGUAAUCAUUUUAAGGGUA

Variants of: B1
Assay: self-cleavage, relative activity (ratio to wild type); higher = more cleavage; in vitro, sequencing; the parent is a self-cleaving ribozyme
Work on C81A A114U yielded a self-cleavage of 0.03. A82G U130C gave a self-cleavage of 0.14. For C81A U122C, the self-cleavage was 0.22. With G83A A92G the self-cleavage was 1.87. For A78C A86U, the self-cleavage was 0.19. Work on C77U U108C yielded a self-cleavage of 0.03. For A86G A94G, the self-cleavage was 1.47. With A78U U100C the self-cleavage was 1.1. G84C U122C showed a self-cleavage of 0.23. G83U A135G showed a self-cleavage of 0.56. G80A U108A gave a self-cleavage of 0.02. In the case of G80U A91G, the self-cleavage is reported as 0.11. For G80U U100C, the self-cleavage was 0.16. Variant A78G A129C has a self-cleavage of 0.11. Variant A78G A129G has a self-cleavage of 0. A82G G99U gave a self-cleavage of 0.07. G83A A94G showed a self-cleavage of 1.79. For A82G C109A, the self-cleavage was 0.05. In the case of G80A U130C, the self-cleavage is reported as 0.08. A78G U97C gave a self-cleavage of 0.38. Variant G84A A135G has a self-cleavage of 2.3. Work on G84A U103C yielded a self-cleavage of 0.82. C85U U102C showed a self-cleavage of 0.67. A82G G138C gave a self-cleavage of 0.66. Work on G83A A90G yielded a self-cleavage of 1.34. Work on G84A U127C yielded a self-cleavage of 2.46. C77A A114G gave a self-cleavage of 0.32. Variant G79A U130C has a self-cleavage of 0.15. A78U U87G showed a self-cleavage of 0.09. Variant A78G A90U has a self-cleavage of 0.31. With A78G A90C the self-cleavage was 0.12. Work on G83A U108C yielded a self-cleavage of 0.02. Work on A86C U130C yielded a self-cleavage of 0.29. In the case of A82G U132C, the self-cleavage is reported as 0.5. G83A U131A showed a self-cleavage of 0.94. In the case of A78U U131A, the self-cleavage is reported as 0.18. With A78G A89U the self-cleavage was 0.24. A78G A89C gave a self-cleavage of 0.43. Work on A78U A118G yielded a self-cleavage of 0.49. C81U A86G gave a self-cleavage of 0.17. With A82U A118G the self-cleavage was 0.06. Variant C77U U133C has a self-cleavage of 2.55. Work on A82U A94G yielded a self-cleavage of 0.26. G80U U120C gave a self-cleavage of 0.08. Variant A78C A110G has a self-cleavage of 0.13. Variant G79U G104U has a self-cleavage of 0.01. With A82U A126G the self-cleavage was 0.1. In the case of A82U A126U, the self-cleavage is reported as 0.19. With C77U A90G the self-cleavage was 2.13. For A78U C88U, the self-cleavage was 0.42. For A82G A116U, the self-cleavage was 0.07. In the case of A82C A118G, the self-cleavage is reported as 0.11. A82U U139A gave a self-cleavage of 0.18. Work on G80C U132A yielded a self-cleavage of 0.1. In the case of A86C U139C, the self-cleavage is reported as 0.51. Work on C85U A134G yielded a self-cleavage of 2.28. For C76U U124A, the self-cleavage was 0.02. With A78U U102A the self-cleavage was 0.16. A78U A91G gave a self-cleavage of 0.11. Variant C85G A110G has a self-cleavage of 0.03. G79A A134G showed a self-cleavage of 0.09. For G79U U100C, the self-cleavage was 0.03. Variant A82U U132C has a self-cleavage of 0.18. In the case of A82C U120C, the self-cleavage is reported as 0.11. C76U A117G gave a self-cleavage of 0.22. In the case of C81A A92G, the self-cleavage is reported as 0.26. A78G G84A showed a self-cleavage of 0.24. G84U C88U showed a self-cleavage of 0.52. With G83A A98U the self-cleavage was 1.82. A78U A90G showed a self-cleavage of 0.32. A78G U127A gave a self-cleavage of 0.31. For C85G A125G, the self-cleavage was 0.55. For A82U A90G, the self-cleavage was 0.33. With A82U A90U the self-cleavage was 0.08. C85G A135G gave a self-cleavage of 0.85. C76U G123A showed a self-cleavage of 0.13. G79A U108C showed a self-cleavage of 0.01. C85G A126G showed a self-cleavage of 0.2. G84A gave a self-cleavage of 2.05. G84C gave a self-cleavage of 0.29. G84U showed a self-cleavage of 0.7. In the case of A78U U122C, the self-cleavage is reported as 0.14. In the case of A78U U122A, the self-cleavage is reported as 0.31. A78G A114U gave a self-cleavage of 0.01. Work on G84U A126G yielded a self-cleavage of 0.45. G79U A96G gave a self-cleavage of 0.1. Variant A78U A92G has a self-cleavage of 0.29. For C77A U122C, the self-cleavage was 0.6. Work on A78G U133C yielded a self-cleavage of 0.27. A82G A129G showed a self-cleavage of 0.47. C81A A126G gave a self-cleavage of 0.17. With A82G U139G the self-cleavage was 0.26. In the case of A82G U139A, the self-cleavage is reported as 0.23. G84A U131C gave a self-cleavage of 2.37. A78G A86U showed a self-cleavage of 0.1. For A78G U100G, the self-cleavage was 0.35. Work on C76U U102C yielded a self-cleavage of 0.1. For A78C U100A, the self-cleavage was 0.11. Variant A78G A125G has a self-cleavage of 0.1. C76U A140G showed a self-cleavage of 0.12. A82U A91G gave a self-cleavage of 0.11. With G83A A135G the self-cleavage was 1.3. In the case of C81U C112U, the self-cleavage is reported as 0.01. Variant A78U U120G has a self-cleavage of 0.37. With A78U U120C the self-cleavage was 0.12. With C81U A129U the self-cleavage was 0.16. In the case of A82U A92U, the self-cleavage is reported as 0.26. In the case of A82U U108A, the self-cleavage is reported as 0.03. For A78G A110G, the self-cleavage was 0.11. With A78G A110C the self-cleavage was 0.3. Work on A78G A92G yielded a self-cleavage of 0.13. A86C A94U gave a self-cleavage of 1.15. Variant A86C A94G has a self-cleavage of 0.32. Work on G80U U87C yielded a self-cleavage of 0.22. A86G A98U gave a self-cleavage of 1.73. With A82G A118U the self-cleavage was 0.44. With A82G A118G the self-cleavage was 0.14. For C85U U131C, the self-cleavage was 0.69. With A78G G106C the self-cleavage was 0.02. For A78G G106U, the self-cleavage was 0.01. A82U U127C showed a self-cleavage of 0.13. Work on A78C A90G yielded a self-cleavage of 0.16. Work on A86G A95G yielded a self-cleavage of 1.72. A82G A126G gave a self-cleavage of 0.33. With C85A A140G the self-cleavage was 1.84. With A78G A96G the self-cleavage was 0.24. In the case of A82C A86U, the self-cleavage is reported as 0.13. A82G U102A gave a self-cleavage of 0.34. Variant A82G U102C has a self-cleavage of 1.16. For G80C A96U, the self-cleavage was 0.09. C77U A126G showed a self-cleavage of 1.49. Work on A82G U122C yielded a self-cleavage of 0.24. Work on G80C U103C yielded a self-cleavage of 0.03. In the case of C77U A116G, the self-cleavage is reported as 1.22. A78U A126U gave a self-cleavage of 0.35. A78U A94G gave a self-cleavage of 0.33. Work on A78U A94U yielded a self-cleavage of 0.4. G79A C112G showed a self-cleavage of 0.12. Work on A78U A111U yielded a self-cleavage of 0.04. In the case of A82G U100C, the self-cleavage is reported as 1.36. Variant A82U A111G has a self-cleavage of 0.02. For C85U A96U, the self-cleavage was 1.58. Variant A82C A89C has a self-cleavage of 0.16. In the case of G79U A135G, the self-cleavage is reported as 0.02. For A86G A116U, the self-cleavage was 0.36. For C85U U127C, the self-cleavage was 0.82. A82C A96G showed a self-cleavage of 0.11. In the case of C77A U131C, the self-cleavage is reported as 0.5. In the case of A82G A117G, the self-cleavage is reported as 0.85. A78G U122C gave a self-cleavage of 0.19. A78G U122G gave a self-cleavage of 0.15. In the case of A82G U87A, the self-cleavage is reported as 0.32. A82G U87C showed a self-cleavage of 0.46. With A82G A111U the self-cleavage was 0.09. A82G A111C showed a self-cleavage of 0.01. A82G A111G gave a self-cleavage of 0.04. Variant A86G A126G has a self-cleavage of 1.18. For A82C A125U, the self-cleavage was 0. In the case of A78U C128A, the self-cleavage is reported as 0.04. With A82G A90G the self-cleavage was 0.31. A86G C105A showed a self-cleavage of 0.02. In the case of A78U G138A, the self-cleavage is reported as 0.36. A86G A129G gave a self-cleavage of 0.22. For A86G A129C, the self-cleavage was 1.29. For A82U U120C, the self-cleavage was 0.03. With C81U A82G the self-cleavage was 0.14. A82G G83U gave a self-cleavage of 0.08.
